Among the data in PMC2677865 are β-Gal activity values, retold here.

Targets include BD-CK2α (UniProt Q60737); BD-CK2β (UniProt P67871); BD-CKT2 1-137 (mouse) (UniProt Q8CH19); BD-CKT2 138-276 (mouse) (UniProt Q8CH19); BD-CKT2 (mouse) (UniProt Q8CH19).
Common to all, as to assay: two-hybrid
Test [1] deals with GAL4-DB-CK2α′ fusion protein (mouse) (UniProt O54833).

Sequence of UniProt Q60737 (Q60737 whole entry): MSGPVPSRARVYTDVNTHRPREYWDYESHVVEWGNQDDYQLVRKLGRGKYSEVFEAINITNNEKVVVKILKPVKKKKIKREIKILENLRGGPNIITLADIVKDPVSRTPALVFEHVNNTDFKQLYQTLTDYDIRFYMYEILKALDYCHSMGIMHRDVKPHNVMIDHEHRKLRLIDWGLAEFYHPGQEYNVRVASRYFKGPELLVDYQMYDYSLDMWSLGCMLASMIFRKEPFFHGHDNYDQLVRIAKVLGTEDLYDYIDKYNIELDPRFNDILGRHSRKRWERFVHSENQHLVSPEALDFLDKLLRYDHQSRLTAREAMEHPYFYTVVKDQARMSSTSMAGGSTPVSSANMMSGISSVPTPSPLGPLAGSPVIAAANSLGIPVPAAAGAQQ
Sequence of UniProt P67871 (P67871 whole entry): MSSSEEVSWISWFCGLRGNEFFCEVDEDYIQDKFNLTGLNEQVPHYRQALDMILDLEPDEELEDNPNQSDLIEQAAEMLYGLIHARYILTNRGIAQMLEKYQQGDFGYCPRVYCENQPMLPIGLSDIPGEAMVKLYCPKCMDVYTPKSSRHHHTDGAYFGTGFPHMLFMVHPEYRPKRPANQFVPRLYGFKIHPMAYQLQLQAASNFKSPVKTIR

For the molecule “CKT2 (CK2 Target protein 2), full length, in pACT2 (from UniProt Q8CH19 1-720) (natural protein)”, the results for the β-Gal activity (in the test with BD-CK2α; with BD-CK2β; in test [1]) were 1, < 0.05 and 5.8, respectively.

B1: CK2α′ as the active (activation) domain fusion (natural protein)
chain: MPGPAAGSRARVYAEVNSLRSREYWDYEAHVPSWGNQDDYQLVRKLGRGKYSEVFEAINITNNERVVVKILKPVKKKKIKREVKILENLRGGTNIIKLIDTVKDPVSKTPALVFEYINNTDFKQLYQILTDFDIRFYMYELLKALDYCHSKGIMHRDVKPHNVMIDHQQKKLRLIDWGLAEFYHPAQEYNVRVASRYFKGPELLVDYQMYDYSLDMWSLGCMLASMIFRKEPFFHGQDNYDQLVRIAKVLGTDELYGYLKKYHIDLDPHFNDILGQHSRKRWENFIHSENRHLVSPEALDLLDKLLRYDHQQRLTAKEAMEHPYFYPVVKEQSQPCAENTVLSSGLTAAR
As for B1, the β-Gal activity with BD-CKT2 1-137 (mouse) was 2.8; with BD-CKT2 138-276 (mouse) it was 6.5; with BD-CKT2 (mouse), 5.2.
